This is an account of results in article doi:10.1101/2023.09.04.556233.

Where two headings read alike, the source gives them in different places.

Assay in all cases: EMSA
(In general: In EMSA bound probe runs differently from free probe, usually more slowly.)

The target of series [1] is T1, Spalt major (Salm) (UniProt P39770 1-1365).
T1 sequence: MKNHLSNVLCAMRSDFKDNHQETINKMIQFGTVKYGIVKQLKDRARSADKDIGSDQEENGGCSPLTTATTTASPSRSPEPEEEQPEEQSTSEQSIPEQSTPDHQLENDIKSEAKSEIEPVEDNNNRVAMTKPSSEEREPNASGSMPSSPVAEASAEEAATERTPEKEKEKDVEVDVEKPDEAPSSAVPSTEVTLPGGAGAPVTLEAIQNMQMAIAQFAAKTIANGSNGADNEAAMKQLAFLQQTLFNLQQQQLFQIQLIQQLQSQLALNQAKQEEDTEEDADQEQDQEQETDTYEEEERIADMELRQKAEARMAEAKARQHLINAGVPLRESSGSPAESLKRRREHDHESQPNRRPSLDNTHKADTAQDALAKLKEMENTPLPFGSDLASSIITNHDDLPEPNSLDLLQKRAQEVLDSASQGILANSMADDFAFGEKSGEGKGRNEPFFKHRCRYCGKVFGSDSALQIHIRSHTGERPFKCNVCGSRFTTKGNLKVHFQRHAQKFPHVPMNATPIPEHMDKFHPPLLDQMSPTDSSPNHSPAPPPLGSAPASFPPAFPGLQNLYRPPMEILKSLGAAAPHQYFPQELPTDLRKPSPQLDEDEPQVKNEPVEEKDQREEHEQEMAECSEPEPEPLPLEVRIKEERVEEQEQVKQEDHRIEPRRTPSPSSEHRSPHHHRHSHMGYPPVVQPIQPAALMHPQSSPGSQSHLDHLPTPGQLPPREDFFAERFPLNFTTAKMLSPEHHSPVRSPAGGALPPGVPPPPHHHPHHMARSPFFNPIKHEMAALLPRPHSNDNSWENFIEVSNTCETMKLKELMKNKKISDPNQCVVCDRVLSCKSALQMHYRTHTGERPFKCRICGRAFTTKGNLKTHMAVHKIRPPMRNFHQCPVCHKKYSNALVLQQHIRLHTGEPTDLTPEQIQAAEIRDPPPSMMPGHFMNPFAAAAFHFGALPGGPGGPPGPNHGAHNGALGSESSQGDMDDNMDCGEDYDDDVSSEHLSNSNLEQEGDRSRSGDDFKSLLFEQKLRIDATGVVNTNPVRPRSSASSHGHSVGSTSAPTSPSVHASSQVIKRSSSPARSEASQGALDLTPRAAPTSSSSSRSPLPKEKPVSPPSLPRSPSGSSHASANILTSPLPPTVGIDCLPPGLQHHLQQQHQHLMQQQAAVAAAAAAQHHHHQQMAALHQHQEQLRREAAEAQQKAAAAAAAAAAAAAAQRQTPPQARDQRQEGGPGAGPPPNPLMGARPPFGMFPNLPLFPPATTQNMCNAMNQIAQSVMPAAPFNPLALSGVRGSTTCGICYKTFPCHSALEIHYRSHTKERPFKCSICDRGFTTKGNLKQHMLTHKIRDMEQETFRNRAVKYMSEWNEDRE

Series [2] addresses T1, Spalt major (Salm). The source holds these as a separate data set.
Series [3] has as its target T1, Spalt major (Salm). This is another data set of the same source.

B1: 60sal (dsDNA)
DNA 1: GCAAAAAGATATCAAAAATGTCGCATATTAATAACGCTCTCCATTGGCGGACACAGGAC
DNA 2: GTCCTGTGTCCGCCAATGGAGAGCGTTATTAATATGCGACATTTTTGATATCTTTTTGC
Consider B1, for which the binding result with Spalt major (Salm) [1] is listed as “binds”.

B2: 60salNC (3' half, non-conserved) (dsDNA)
DNA 1: TTAATAACGCTCTCCATTGGCGGACACAGGAC
DNA 2: GTCCTGTGTCCGCCAATGGAGAGCGTTATTAA
Regarding B2, in the series with Spalt major (Salm) [2], the binding result is recorded as “binds”.

B3: 60salC (5' half, conserved) (dsDNA)
DNA 1: GCAAAAAGATATCAAAAATGTCGCATATT
DNA 2: AATATGCGACATTTTTGATATCTTTTTGC
As to B3, the binding result with Spalt major (Salm) [3] is “binds”.
